Assay [1] addresses Flag-HIF-1α (mouse HIF-1α in pCVM-Flag vector, expressed in transfected cells) (mouse) (UniProt Q61221). The assay is described as follows: cell-based or functional assay.
Assay [2] concerns the target T1, Flag-HIF-1α (mouse HIF-1α in pCVM-Flag vector, expressed in transfected cells) (mouse, UniProt Q61221-2 1-822, limits assumed).
T1 construct: not shown: Flag tag
The assay is described as follows: co-expression in 293T cells, immunoprecipitation of Flag-HIF-1α with M2 beads, immunoblot. The protocol:
Immunoprecipitation and Western blotting. For immunoprecipitation, cells were harvested in lysis buffer containing 50 mM Tris-HCl pH7.5, 150 mM NaCl, 0.5% NP40, 1 mM EDTA, 1 mM sodium orthovanadate, 1mM PMSF, 10 μg/ml aprotinin, 10 μg/ml leupeptine and 10 μg/ml pepstatin A. To immunoprecipitate Flag-tagged proteins, lysates were incubated with M2 beads (Sigma) overnight, the beads were washed 3 times, and precipitated proteins were eluted with 1 mg/ml of flag peptide. To immunoprecipitate endogenous proteins, cells lysates were incubated with 3 μg of primary antibodies overnight, and followed by incubation with Protein G beads for 1 h. After washing 3 times, the precipitated proteins were eluted with SDS loading buffer. To extract whole cell lysate, cells were harvested using RIPA buffer (50 mM Tris-HCl (pH7.5), 150 mM NaCl, 1% Triton X-100, 0.1% SDS, 0.1% Na-deoxycholate, 1 mM EDTA, 1 mM sodium orthovanadate, 1 mM PMSF, 10 μg/ml aprotinin, and 10 μg/ml leupeptine). Cell lysates were subjected to SDS-PAGE and proteins transferred onto a nitrocellulose membrane (Osmonics Inc.). The membrane was probed with primary antibodies followed by a secondary antibody conjugated with fluorescent dye and detected by the Odyssey detecting system ([…]).

Chain of Flag-HIF-1α (mouse HIF-1α in pCVM-Flag vector, expressed in transfected cells) (mouse) (Q61221 other isoform, or with tags, fused parts or gaps limits assumed): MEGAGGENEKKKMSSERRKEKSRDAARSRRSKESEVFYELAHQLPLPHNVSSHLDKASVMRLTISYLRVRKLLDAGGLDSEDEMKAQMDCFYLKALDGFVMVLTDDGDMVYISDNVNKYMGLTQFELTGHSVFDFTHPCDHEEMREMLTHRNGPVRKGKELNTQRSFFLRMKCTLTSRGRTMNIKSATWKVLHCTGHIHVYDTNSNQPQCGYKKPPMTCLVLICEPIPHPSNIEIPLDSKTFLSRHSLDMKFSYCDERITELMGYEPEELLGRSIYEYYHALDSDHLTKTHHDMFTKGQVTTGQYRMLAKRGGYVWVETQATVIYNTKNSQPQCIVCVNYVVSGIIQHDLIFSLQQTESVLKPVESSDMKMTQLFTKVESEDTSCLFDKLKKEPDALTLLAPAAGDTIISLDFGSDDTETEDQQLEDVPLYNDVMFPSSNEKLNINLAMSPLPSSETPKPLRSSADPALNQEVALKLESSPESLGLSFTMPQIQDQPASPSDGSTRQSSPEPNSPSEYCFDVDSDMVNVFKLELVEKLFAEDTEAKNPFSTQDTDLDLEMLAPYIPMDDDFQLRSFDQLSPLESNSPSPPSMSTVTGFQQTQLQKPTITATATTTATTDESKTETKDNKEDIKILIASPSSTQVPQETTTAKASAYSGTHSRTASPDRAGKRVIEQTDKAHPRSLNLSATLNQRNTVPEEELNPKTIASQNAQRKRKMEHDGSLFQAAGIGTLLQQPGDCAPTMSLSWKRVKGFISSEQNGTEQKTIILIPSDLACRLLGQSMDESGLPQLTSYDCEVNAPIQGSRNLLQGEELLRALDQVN
T1 sequence (Q61221 other isoform, or with tags, fused parts or gaps limits assumed): as above

Turning to “exogenous FoxA2 expressed in TRAMP-C cells (luciferase assay of FIG. 3A)”, the HRE-Luc luciferase activity in TRAMP-C cells in assay [1] is 6 fold.

B1: HA-FoxA1 (HA-tagged rat FoxA1 in pcDNA3) (other, UniProt P23512 1-466, looked up)
chain: MLGTVKMEGHESNDWNSYYADTQEAYSSVPVSNMNSGLGSMNSMNTYMTMNTMTTSGNMTPASFNMSYANPGLGAGLSPGAVAGMPGGSAGAMNSMTAAGVTAMGAALSPGGMGSMGAQPAASMNGLGPYAAAMNPCMSPMAYAPSNLGRSRAGGGGDAKTFKRSYPHAKPPYSYISLITMAIQQAPSKMLTLSEIYQWIMDLFPYYRQNQQRWQNSIRHSLSFNACFVKVARSPDKPGKGSYWTLHPDSGNMFENGCYLRRQKRFKCEKQPGAGGGSGGGGSKGVPENRKDPSGPVNPSAESPIHRGVHGKASQLEGAPAPGPAASPQTLDHSGATATGGGSELKSPASSSAPPISSGPGGWICTPLSPTWLAPHESQLHLKGAPHYSFNHPFSINNLMSSSEQQHKLDFKAYEQALQYSPYGATLPASLPLGGASVATRSPIEPSALEPAYYQGVYSRPVLNTS
notes: not shown: HA tag
With B1, the binding result in assay [2] was “no binding”.

The record behind these values is patent publication US20110301095A1 (SANFORD BURNHAM MEDICAL RESEARCH INSTITUTE CALIFORNIA, published 2011).
